{"source": "paper PMC5662131", "binders": {"B1": {"name": "(His)6-KcsA, K+ channel from Streptomyces lividans, P0A334 1-160 (natural protein)", "chain": "MPPMLSGLLARLVKLLLGRHGSALHWRAAGAATVLLVIVLLAGSYLAVLAERGAPGAQLITYPRALWWSVETATTVGYGDLYPVTLWGRLVAVVVMVAGITSFGLVTAALATWFVGREQERRGHFVRHSEKAAEEAYTRTTRALHERFDRLERMLDDNRR"}}, "key": {"[1]": {"target": "T1, (His)6-KcsA, K+ channel from Streptomyces lividans (Streptomyces lividans), P0A334", "T1 chain": "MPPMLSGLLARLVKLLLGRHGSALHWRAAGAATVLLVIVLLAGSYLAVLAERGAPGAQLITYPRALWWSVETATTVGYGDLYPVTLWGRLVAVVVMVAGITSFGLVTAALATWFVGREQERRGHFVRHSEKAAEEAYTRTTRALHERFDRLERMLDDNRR", "test": "SEC", "details": "remark: other sources report otherwise"}, "[2]": {"target": "T1, (His)6-KcsA, K+ channel from …", "test": "SDS-PAGE with Western blot", "details": "remark: other sources report otherwise"}}, "data": [{"binder": "B1", "values": [{"measurement": "stoichiometry N", "setting": "[1]", "value": 4}, {"measurement": "stoichiometry N", "setting": "[2]", "value": 4}]}]}
